Test results from patent US20200308299A1, “ANTI-GPC-1 ANTIBODY” (National University Corporation Kochi University, priority 2017, published 2020).

Experiments:
[1] = system: GPC1 positive esophageal cancer cell strains (TE4, TE5, TE6, TE8, TE9, TE10, TE11, TE14, TE15); assay: In vitro ADC assay, GPC1 positive esophageal cancer cell strains; type: cell-based; conditions: 144 hours of culture
Procedure: Preparation of a conjugate of mouse anti-Glypican-1 mAb (01a033), mouse IgG2a (biolegend #400224) as a control, and mc-vc-PAB-MMAF was commissioned to MORADEC. An anticancer agent was conjugated to a cysteine residue via a cleavable linker. The DAR (drug-antibody ratio) was as follows. GPC1-CL-MMAF DAR=3.8, mouse IgG2a-CL-MMAF DAR=4.1.
(1) The cells were seeded on Thermo Fisher Scientific's 96-well white plate (model no.: 136101) (90 μl cell suspension). RPMI1640+10% FBS+100 U/ml penicillin+100 μg/ml streptomycin was used as the medium. The cells were seeded in 60 wells, and 100 μL of medium was added to 36 wells, and cultured in a 5% CO2 incubator at 37° C. (2) The next day, 10 μL of ADC was added to the cells (total amount: 100 μL). (3) After 144 hours of culture, a CellTiter-Glo™ Luminescence Cell Viability Assay reagent (Promega) was added and mixed at 100 μL/well. (4) Measurements were taken with a plate reader. (5) Analysis was conducted with GraphPad Prism 6.
The IC50 values were calculated from the following equation (Hossain M M, Hosono-Fukao T, Tang R, Sugaya N, van Kuppevelt T H, Jenniskens G J, Kimata K, Rosen S D, Uchimura K (2010) Direct detection of HSulf-1 and HSulf-2 activities on extracellular heparan sulphate and their inhibition by PI-88. Glycobiology 20(2): 175-186.)
IC50=10^(Log [A][B]×(50−C)/(D−C)+Log [B]) […]

pancreatic cancer PDX = assay: In vivo efficacy test on GPC1 ADC using pancreatic cancer PDX in NOG mice; parameters: species or system mouse; conditions: 1, 3, 10 mg/kg iv day 0, 4, 8, 12
From the text: Pancreatic cancer PDX (Patient-derived tumor xenograft) refers to residual tissue from pathological analysis of cancer tissue upon pancreatic cancer surgery from a pancreatic cancer patient. This Example used a pancreatic cancer model created by subcutaneously grafting in superimmunodeficient mice such as NOG mice. While human tumor hardly survives in SCID mice after grafting, NOG mice have more severe immunodeficiency than SCID mouse, so that human tumor is more likely to survive. For this reason, a PDX model has an environment that is closer to human tumor than a mouse model to which a cell strain is grafted. Thus, information obtained with a PDX model is useful in evaluating drug efficacy.
FIG. 24 schematically depicts the test in this Example. Specifically, pancreatic cancer PDX was subcutaneously grafted into 6 week old female NOG mice. […] The tumor volume and body weight were measured on day 0, day 4, day 8, day 12, day 16, day 20, day 24, and day 28.

B1: GPC1 ADC (conjugate)
heavy: QVQLKQSGPELVKPGASVKISCKASGYSFTGYYMHWVKQSPEKSLEWIGEINPSTGDTTYNQKFKAKATLTVDKSSSTAYMQLKSLTSEDSAVYYCAREKRDDGVFAYWGQGTLVTVSSAKTTAPSVYPLAPVCGDTTGSSVTLGCLVKGYFPEPVTLTWNSGSLSSGVHTFPAVLQSDLYTLSSSVTVTSSTWPSQSITCNVAHPASSTKVDKKIEPRGPTIKPCPPCKCPAPNLLGGPSVFIFPPKIKDVLMISLSPIVTCVVVDVSEDDPDVQISWFVNNVEVHTAQTQTHREDYNSTLRVVSALPIQHQDWMSGKEFKCKVNNKDLPAPIERTISKPKGSVRAPQVYVLPPPEEEMTKKQVTLTCMVTDFMPEDIYVEWTNNGKTELNYKNTEPVLDSDGSYFMYSKLRVEKKNWVERNSYSCSVVHEGLHNHHTTKSFSRTPGK
light: DIVMSQSPKSMSMSVGERVALSCKASENVGTYVSWYQQKPEQSPKLLIYGASNRYTGVPDRFTGSGSATDFTLTISSVQAEDLADYYCGQSYSYPLTFGAGTKLELKRADAAPTVSIFPPSSEQLTSGGASVVCFLNNFYPKDINVKWKIDGSERQNGVLNSWTDQDSKDSTYSMSSTLTLTKDEYERHNSYTCEATHKTSTSPIVKSFNRNEC
effect of suppressing cell growth [1]: exhibits an effect of suppressing cell growth
antitumor effect (tumor volume, tumor weight day 28) (pancreatic cancer PDX): exhibited an antitumor effect
